This is an account of results in publication PMC10276142, “Protocol to measure protein-RNA binding using double filter-binding assays followed by phosphorimaging or high-throughput sequencing”.

For this data set, the target named is AGO2 (miR-449a RISC) (mouse, UniProt Q8CJG0 1-860). The data set is described as follows: filter binding; titration regime, 0.5 nM target RNA (2.5 nM stock, 1 in 5), 37 C 1 h; stoichiometric point [RISC]/[target] 1.3 (77% active); no KD reported; Double filter binding (nitrocellulose/nylon), 5 uL reactions, 37 C for 1 h; compositions of Storage, Dilution and Reaction Mix buffers not given in material. To be noted: protein: recombinant; tags: FLAG; label: 5' 32P on target; guide:target seed pairing, guide nt 2-8 plus A opposite nt 1; rest of target single-stranded.
Chain of AGO2 (miR-449a RISC) (Q8CJG0 whole entry): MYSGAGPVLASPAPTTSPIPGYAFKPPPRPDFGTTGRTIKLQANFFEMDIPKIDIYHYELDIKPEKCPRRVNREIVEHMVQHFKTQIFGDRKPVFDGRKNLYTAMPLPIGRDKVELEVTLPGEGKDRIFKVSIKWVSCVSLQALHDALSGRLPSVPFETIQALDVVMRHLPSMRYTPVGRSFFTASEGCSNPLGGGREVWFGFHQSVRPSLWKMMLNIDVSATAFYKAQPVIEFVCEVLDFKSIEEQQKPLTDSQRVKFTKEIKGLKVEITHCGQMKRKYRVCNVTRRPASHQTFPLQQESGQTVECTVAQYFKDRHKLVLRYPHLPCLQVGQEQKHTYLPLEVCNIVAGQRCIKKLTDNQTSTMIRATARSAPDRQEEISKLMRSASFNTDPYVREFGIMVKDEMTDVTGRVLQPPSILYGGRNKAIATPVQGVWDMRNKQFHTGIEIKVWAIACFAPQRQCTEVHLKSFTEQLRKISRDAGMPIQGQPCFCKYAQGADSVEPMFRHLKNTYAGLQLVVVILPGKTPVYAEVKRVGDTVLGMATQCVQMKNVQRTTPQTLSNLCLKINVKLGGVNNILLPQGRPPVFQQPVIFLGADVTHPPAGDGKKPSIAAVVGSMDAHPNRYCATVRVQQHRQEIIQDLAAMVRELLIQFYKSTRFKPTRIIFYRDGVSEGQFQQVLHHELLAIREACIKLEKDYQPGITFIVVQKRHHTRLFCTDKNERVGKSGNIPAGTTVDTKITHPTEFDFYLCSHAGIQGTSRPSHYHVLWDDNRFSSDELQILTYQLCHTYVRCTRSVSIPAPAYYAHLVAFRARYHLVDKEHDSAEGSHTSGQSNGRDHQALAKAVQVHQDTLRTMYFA

B1: miR-449a guide / 8mer-site target RNA (mixed)
RNA 1: UGGCAGUGUAUUGUUAGCUGGU
RNA 2: AUGAAAUCGAUAUCUAUCACUGCCAACU
modifications: guide 5'-phosphate; target 5' 32P-phosphate
Consider B1, for which the binding result was “binds”.
